Measured values taken from paper PMC3844954.

Key:
[1] = western blot of acetone-precipitated HEK293 medium; conditions: glycan lost; control: wild-type IFNλ4-FLAG
[2] = IFNλ activity of supernatant, Mx1-luciferase reporter, HEK293+IFNλR1; conditions: glycan lost; control: wild-type IFNλ4-FLAG

B1: IFNλ4 (interferon lambda 4): N61D (protein)
parent chain: MRPSVWAAVAAGLWVLCTVIAAAPRRCLLSHYRSLEPRTLAAAKALRDRYEEEALSWGQRNCSFRPRRDPPRPSSCARLRHVARGIADAQAVLSGLHRSELLPGAGPILELLAAAGRDVAACLELARPGSSRKVPGAQKRRHKPRRADSPRCRKASVVFNLLRLLTWELRLAAHSGPCL
expression_or_secretion [1]: decreases | expression_or_secretion [2]: decreases
